The test system of test [1] is fracture-healing in rabbits. Particulars: no distraction; cited from earlier work.
The subject of test [2] is distracted tibia (callus distraction) of Yucatan mini-pigs. Briefly: Mechanical torsion testing of distracted tibia after callus distraction in GH-treated mini-pigs. In kind it is in vivo, Yucatan mini-pig. Particulars: at sacrifice. On the procedure:
After sacrifice, the right and left limb were dissected. The soft tissue around the joints was removed, and the ends of the tibia were casted in Beracryl. The constructs were placed in a materials testing machine (Zwick, Ulm, Germany), and torsional moments were applied. Resulting displacements and torsional moments were recorded. The test was conducted with a speed of 30° per minute until failure. The system automatically terminated the test at a torque of 20%.
The final bone torsional strength of a mini-pig group treated with growth hormone was investigated relative to a control group.
30 mature female Yucatan mini-pigs were equally distributed into two treatment groups. Mini-pigs in the study group received a daily injection of recombinant porcine growth hormone (r-pGH: 100 μg/kg), the mini-pigs in the control group received sodium chloride as placebo. The left tibiae and fibulae were osteotomized and stabilized with an external fixator. Full weight bearing was permitted. The legs were distracted twice daily at 2 mm/day for 10 days and then allowed to consolidate for 10 days. After sacrifice, torsional moments were applied to the distracted and the contralateral tibia in a material testing machine and the maximum torsional moment was determined. Four animals were removed from the study due to bone infection or surgery failure and data of 2 animals were lost due to test machine failure. A t-test was used to determine differences in maximum torsional moments between the treatment groups.

A further test deals with healing fracture in dogs. Particulars: compared to non-treated dogs; cited from earlier work.

For the molecule growth hormone, the effect on fracture-healing result in test [1] is reported as “no effect”.

B1: GH: recombinant porcine growth hormone (r-pGH), homologous GH injected daily at 100 μg/kg in mini-pigs (protein, UniProt P01248 27-216, looked up)
Somatotropin: FPAMPLSSLFANAVLRAQHLHQLAADTYKEFERAYIPEGQRYSIQNAQAAFCFSETIPAPTGKDEAQQRSDVELLRFSLLLIQSWLGPVQFLSRVFTNSLVFGTSDRVYEKLKDLEEGIQALMRELEDGSPRAGQILKQTYDKFDTNLRSDDALLKNYGLLSCFKKDLHKAETYLRVMKCRRFVESSCAF
As for B1, in test [2] (r-pGH 100 μg/kg daily injection, distraction 2 mm/day for 10 days, consolidation 10 days, p=0.001 vs placebo), the “maximum torsional moment of distracted tibia” value is 19.5±7.8 Nm. Further, the “maximum torsional moment in comparison to the intact contralateral tibia” value in test [2] (r-pGH 100 μg/kg daily, p<0.001 vs control) is 64±22.4%. Further, the “higher maximum torsional moment than placebo group” value in test [2] (r-pGH 100 μg/kg daily, versus placebo group) is listed as 131%.

B2: cST: canine somatotropin given to dogs in the study of Buonomo et al. (protein, UniProt P33711 27-216, looked up)
Somatotropin: FPAMPLSSLFANAVLRAQHLHQLAADTYKEFERAYIPEGQRYSIQNAQAAFCFSETIPAPTGKDEAQQRSDVELLRFSLLLIQSWLGPVQFLSRVFTNSLVFGTSDRVYEKLKDLEEGIQALMRELEDGSPRAGQILKQTYDKFDTNLRSDDALLKNYGLLSCFKKDLHKAETYLRVMKCRRFVESSCAF
Regarding B2, in the test with healing fracture in dogs, the “increase of stiffness of the healing fracture” value is reported as 5 fold and the “increase of strength of the healing fracture” value is on record as 3 fold.

These data come from US20020128178A1, “Use of growth hormone or a growth hormone secretagogue for promoting bone formation” (priority 1996, published 2002).
